Reference: patent US20160090402A1

Assays:
hASCT1 receptor (human) = hASCT1 receptor (human) (UniProt P43007); test: soluble Env injected into SCID mice grafted with XChASCT1 cells; cells recovered, anti-RGS-His immunofluorescence
[1] = biological target: hASCT2 receptor (human type 2 sodium-dependent neutral amino acid transporter) (human) (UniProt Q15758); test: soluble Env injected into SCID mice grafted with XChASCT2 cells; cells recovered, anti-RGS-His immunofluorescence
Chain of hASCT2 receptor (human type 2 sodium-dependent neutral amino acid transporter) (human) (Q15758 whole entry): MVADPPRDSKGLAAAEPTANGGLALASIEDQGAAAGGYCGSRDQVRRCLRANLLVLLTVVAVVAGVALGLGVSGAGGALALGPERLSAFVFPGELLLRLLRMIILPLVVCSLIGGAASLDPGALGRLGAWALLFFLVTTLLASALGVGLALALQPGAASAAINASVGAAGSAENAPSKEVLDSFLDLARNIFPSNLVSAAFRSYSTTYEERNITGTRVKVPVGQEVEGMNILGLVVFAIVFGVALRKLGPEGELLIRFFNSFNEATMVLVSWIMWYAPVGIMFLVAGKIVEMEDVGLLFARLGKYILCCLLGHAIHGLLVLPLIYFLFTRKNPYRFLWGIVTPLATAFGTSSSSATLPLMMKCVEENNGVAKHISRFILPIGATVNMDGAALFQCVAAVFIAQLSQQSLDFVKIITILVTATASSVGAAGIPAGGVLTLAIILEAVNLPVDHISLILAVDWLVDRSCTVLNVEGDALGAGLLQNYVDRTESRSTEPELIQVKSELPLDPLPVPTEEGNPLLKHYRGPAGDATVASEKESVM

Chain of hASCT1 receptor (human) (P43007 whole entry): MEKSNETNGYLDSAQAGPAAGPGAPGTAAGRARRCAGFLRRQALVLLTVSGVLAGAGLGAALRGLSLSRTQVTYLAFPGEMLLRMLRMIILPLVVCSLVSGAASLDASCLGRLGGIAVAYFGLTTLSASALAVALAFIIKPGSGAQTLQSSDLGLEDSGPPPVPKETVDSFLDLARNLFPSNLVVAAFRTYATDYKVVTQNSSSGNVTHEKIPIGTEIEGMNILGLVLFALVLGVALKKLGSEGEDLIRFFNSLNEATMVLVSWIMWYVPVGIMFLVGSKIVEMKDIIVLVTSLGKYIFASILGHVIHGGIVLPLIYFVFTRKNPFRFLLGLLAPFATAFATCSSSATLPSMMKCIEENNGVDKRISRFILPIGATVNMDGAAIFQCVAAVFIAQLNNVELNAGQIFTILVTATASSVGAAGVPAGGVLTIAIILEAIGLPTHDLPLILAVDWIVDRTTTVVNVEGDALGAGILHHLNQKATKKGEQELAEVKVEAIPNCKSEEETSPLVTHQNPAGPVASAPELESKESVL

Substance: soluble protein of plasmid 460 (envelope-spacer-His6) (from UniProt Q9UQF0 21-435) (ligand)
- NF/NT, Mean (fluorescent cells of 77 cells) (hASCT1 receptor (human)): 24
- NF/NT, Mean (fluorescent cells of 57 cells) [1]: 23
